Consider 21 molecules from patent publication US20220144956A1 (published 2022).

Usually Kd stands for the free concentration of one partner at which half of the binding sites on the other are occupied at equilibrium, for simple one-to-one binding.

To fix the notation:
B1: XENP36167 H1.184 L1 (antibody, V domains shown)
VH: QLQVQESGPGLVKPSETLSLTCTVSGGSISESYFSWGWIRQPPGKGLEWIGSFYYGGKTYYNPSLKSRATISIDTSKNQFSLKLSSVTAADTAVYYCARGPTMIRGVIDSWGQGTLVTVSS
VL: EIVLTQSPATLSLSPGERATLSCRASQSVRSYLAWYQQKPGQAPRLLIYDASNRATGIPARFSGSGSGTDFTLTISSLEPEDFAVYYCQQRSNWPPTFGQGTKVEIK
B2: XENP36175 H1.192 L1 (antibody, V domains shown)
VH: QLQVQESGPGLVKPSETLSLTCTVSGGSISTSYFSWGWIRQPPGKGLEWIGSFYYGGKTYYNPSLKSRATISIDTSKNQFSLKLSSVTAADTAVYYCARGPTMIRGVIDSWGQGTLVTVSS
VL: EIVLTQSPATLSLSPGERATLSCRASQSVRSYLAWYQQKPGQAPRLLIYDASNRATGIPARFSGSGSGTDFTLTISSLEPEDFAVYYCQQRSNWPPTFGQGTKVEIK
B3: XENP36186 H1.203 L1 (antibody, V domains shown)
VH: QLQVQESGPGLVKPSETLSLTCTVSGGSISNAYFSWGWIRQPPGKGLEWIGSFYYGGKTYYNPSLKSRATISIDTSKNQFSLKLSSVTAADTAVYYCARGPTVIRGVIDSWGQGTLVTVSS
VL: EIVLTQSPATLSLSPGERATLSCRASQSVRSYLAWYQQKPGQAPRLLIYDASNRATGIPARFSGSGSGTDFTLTISSLEPEDFAVYYCQQRSNWPPTFGQGTKVEIK
B4: XENP35104 H1.29 L1 (antibody, V domains shown)
VH: QLQVQESGPGLVKPSETLSLTCTVSGGSISNSYFTWGWIRQPPGKGLEWIGSFYYGEKTYYNPSLKSRATISIDTSKSQFSLKLSSVTAADTAVYYCPRGPTMIRGVIDSWGQGTLVTVSS
VL: EIVLTQSPATLSLSPGERATLSCRASQSVRSYLAWYQQKPGQAPRLLIYDASNRATGIPARFSGSGSGTDFTLTISSLEPEDFAVYYCQQRSNWPPTFGQGTKVEIK
B5: XENP36166 H1.183 L1 (antibody, V domains shown)
VH: QLQVQESGPGLVKPSETLSLTCTVSGGSISNSYFSWGWIRQPPGKGLEWIGSFYYGGKTYYNPSLKSRATISIDTSKNQFSLKLSSVTAADTAVYYCARGPTMIRGVFDSWGQGTLVTVSS
VL: EIVLTQSPATLSLSPGERATLSCRASQSVRSYLAWYQQKPGQAPRLLIYDASNRATGIPARFSGSGSGTDFTLTISSLEPEDFAVYYCQQRSNWPPTFGQGTKVEIK
B6: XENP35105 H1.30 L1 (antibody, V domains shown)
VH: QLQVQESGPGLVKPSETLSLTCTVSGGSISNSYFYWGWIRQPPGKGLEWIGSFYYGEKTYYNPSLKSRATISIDTSKSQFSLKLSSVTAADTAVYYCPRGPTMIRGVIDSWGQGTLVTVSS
VL: EIVLTQSPATLSLSPGERATLSCRASQSVRSYLAWYQQKPGQAPRLLIYDASNRATGIPARFSGSGSGTDFTLTISSLEPEDFAVYYCQQRSNWPPTFGQGTKVEIK
B7: XENP36170 H1.187 L1 (antibody, V domains shown)
VH: QLQVQESGPGLVKPSETLSLTCTVSGGSISESYFSWGWIRQPPGKGLEWIGSFYYGGKTYYNPSLKSRATISIDTSKNQFSLKLSSVTAADTAVYYCARGPTVIRGVIDSWGQGTLVTVSS
VL: EIVLTQSPATLSLSPGERATLSCRASQSVRSYLAWYQQKPGQAPRLLIYDASNRATGIPARFSGSGSGTDFTLTISSLEPEDFAVYYCQQRSNWPPTFGQGTKVEIK
B8: XENP36164 H1.181 L1 (antibody, V domains shown)
VH: QLQVQESGPGLVKPSETLSLTCTVSGGSISNSYFSWGWIRQPPGKGLEWIGSFYYGGKTYYNPSLKSRATISIDTSKNQFSLKLSSVTAADTAVYYCARGPTMIRGVIDSWGQGTLVTVSS
VL: EIVLTQSPATLSLSPGERATLSCRASQSVRSYLAWYQQKPGQAPRLLIYDASNRATGIPARFSGSGSGTDFTLTISSLEPEDFAVYYCQQRSNWPPTFGQGTKVEIK
B9: XENP34288 H1.1 L1 (antibody, V domains shown)
VH: QLQVQESGPGLVKPSETLSLTCTVSGGSISNSYFSWGWIRQPPGKGLEWIGSFYYGEKTYYNPSLKSRATISIDTSKSQFSLKLSSVTAADTAVYYCPRGPTVIRGVIDSWGQGTLVTVSS
VL: EIVLTQSPATLSLSPGERATLSCRASQSVRSYLAWYQQKPGQAPRLLIYDASNRATGIPARFSGSGSGTDFTLTISSLEPEDFAVYYCQQRSNWPPTFGQGTKVEIK
B10: XENP36183 H1.200 L1 (antibody, V domains shown)
VH: QLQVQESGPGLVKPSETLSLTCTVSGGSISNAYFSWGWIRQPPGKGLEWIGSFYYGGKTYYNPSLKSRATISIDTSKNQFSLKLSSVTAADTAVYYCARGPTMIRGVIDSWGQGTLVTVSS
VL: EIVLTQSPATLSLSPGERATLSCRASQSVRSYLAWYQQKPGQAPRLLIYDASNRATGIPARFSGSGSGTDFTLTISSLEPEDFAVYYCQQRSNWPPTFGQGTKVEIK
B11: XENP36179 H1.196 L1 (antibody, V domains shown)
VH: QLQVQESGPGLVKPSETLSLTCTVSGGSISQSYFSWGWIRQPPGKGLEWIGSFYYGGKTYYNPSLKSRATISIDTSKNQFSLKLSSVTAADTAVYYCARGPTMIRGVIDSWGQGTLVTVSS
VL: EIVLTQSPATLSLSPGERATLSCRASQSVRSYLAWYQQKPGQAPRLLIYDASNRATGIPARFSGSGSGTDFTLTISSLEPEDFAVYYCQQRSNWPPTFGQGTKVEIK
B12: XENP36174 H1.191 L1 (antibody, V domains shown)
VH: QLQVQESGPGLVKPSETLSLTCTVSGGSISSSYFSWGWIRQPPGKGLEWIGSFYYGGKTYYNPSLKSRATISIDTSKNQFSLKLSSVTAADTAVYYCARGPTVIRGVIDSWGQGTLVTVSS
VL: EIVLTQSPATLSLSPGERATLSCRASQSVRSYLAWYQQKPGQAPRLLIYDASNRATGIPARFSGSGSGTDFTLTISSLEPEDFAVYYCQQRSNWPPTFGQGTKVEIK
B13: XENP36185 H1.202 L1 (antibody, V domains shown)
VH: QLQVQESGPGLVKPSETLSLTCTVSGGSISNAYFSWGWIRQPPGKGLEWIGSFYYGGKTYYNPSLKSRATISIDTSKNQFSLKLSSVTAADTAVYYCARGPTTIRGVIDSWGQGTLVTVSS
VL: EIVLTQSPATLSLSPGERATLSCRASQSVRSYLAWYQQKPGQAPRLLIYDASNRATGIPARFSGSGSGTDFTLTISSLEPEDFAVYYCQQRSNWPPTFGQGTKVEIK
B14: XENP36172 H1.189 L1 (antibody, V domains shown)
VH: QLQVQESGPGLVKPSETLSLTCTVSGGSISSSYFSWGWIRQPPGKGLEWIGSFYYGGKTYYNPSLKSRATISIDTSKNQFSLKLSSVTAADTAVYYCARGPTLIRGVIDSWGQGTLVTVSS
VL: EIVLTQSPATLSLSPGERATLSCRASQSVRSYLAWYQQKPGQAPRLLIYDASNRATGIPARFSGSGSGTDFTLTISSLEPEDFAVYYCQQRSNWPPTFGQGTKVEIK
B15: XENP36176 H1.193 L1 (antibody, V domains shown)
VH: QLQVQESGPGLVKPSETLSLTCTVSGGSISTSYFSWGWIRQPPGKGLEWIGSFYYGGKTYYNPSLKSRATISIDTSKNQFSLKLSSVTAADTAVYYCARGPTLIRGVIDSWGQGTLVTVSS
VL: EIVLTQSPATLSLSPGERATLSCRASQSVRSYLAWYQQKPGQAPRLLIYDASNRATGIPARFSGSGSGTDFTLTISSLEPEDFAVYYCQQRSNWPPTFGQGTKVEIK
B16: XENP36177 H1.194 L1 (antibody, V domains shown)
VH: QLQVQESGPGLVKPSETLSLTCTVSGGSISTSYFSWGWIRQPPGKGLEWIGSFYYGGKTYYNPSLKSRATISIDTSKNQFSLKLSSVTAADTAVYYCARGPTTIRGVIDSWGQGTLVTVSS
VL: EIVLTQSPATLSLSPGERATLSCRASQSVRSYLAWYQQKPGQAPRLLIYDASNRATGIPARFSGSGSGTDFTLTISSLEPEDFAVYYCQQRSNWPPTFGQGTKVEIK
B17: XENP36178 H1.195 L1 (antibody, V domains shown)
VH: QLQVQESGPGLVKPSETLSLTCTVSGGSISTSYFSWGWIRQPPGKGLEWIGSFYYGGKTYYNPSLKSRATISIDTSKNQFSLKLSSVTAADTAVYYCARGPTVIRGVIDSWGQGTLVTVSS
VL: EIVLTQSPATLSLSPGERATLSCRASQSVRSYLAWYQQKPGQAPRLLIYDASNRATGIPARFSGSGSGTDFTLTISSLEPEDFAVYYCQQRSNWPPTFGQGTKVEIK
B18: XENP36168 H1.185 L1 (antibody, V domains shown)
VH: QLQVQESGPGLVKPSETLSLTCTVSGGSISESYFSWGWIRQPPGKGLEWIGSFYYGGKTYYNPSLKSRATISIDTSKNQFSLKLSSVTAADTAVYYCARGPTLIRGVIDSWGQGTLVTVSS
VL: EIVLTQSPATLSLSPGERATLSCRASQSVRSYLAWYQQKPGQAPRLLIYDASNRATGIPARFSGSGSGTDFTLTISSLEPEDFAVYYCQQRSNWPPTFGQGTKVEIK
B19: XENP36173 H1.190 L1 (antibody, V domains shown)
VH: QLQVQESGPGLVKPSETLSLTCTVSGGSISSSYFSWGWIRQPPGKGLEWIGSFYYGGKTYYNPSLKSRATISIDTSKNQFSLKLSSVTAADTAVYYCARGPTTIRGVIDSWGQGTLVTVSS
VL: EIVLTQSPATLSLSPGERATLSCRASQSVRSYLAWYQQKPGQAPRLLIYDASNRATGIPARFSGSGSGTDFTLTISSLEPEDFAVYYCQQRSNWPPTFGQGTKVEIK
B20: XENP35107 H1.36 L1 (antibody, V domains shown)
VH: QLQVQESGPGLVKPSETLSLTCTVSGGSISNSYFSWSWIRQPPGKGLEWIGSFYYGEKTYYNPSLKSRATISIDTSKSQFSLKLSSVTAADTAVYYCPRGPTMIRGVIDSWGQGTLVTVSS
VL: EIVLTQSPATLSLSPGERATLSCRASQSVRSYLAWYQQKPGQAPRLLIYDASNRATGIPARFSGSGSGTDFTLTISSLEPEDFAVYYCQQRSNWPPTFGQGTKVEIK
B21: XENP36171 H1.188 L1 (antibody, V domains shown)
VH: QLQVQESGPGLVKPSETLSLTCTVSGGSISSSYFSWGWIRQPPGKGLEWIGSFYYGGKTYYNPSLKSRATISIDTSKNQFSLKLSSVTAADTAVYYCARGPTMIRGVIDSWGQGTLVTVSS
VL: EIVLTQSPATLSLSPGERATLSCRASQSVRSYLAWYQQKPGQAPRLLIYDASNRATGIPARFSGSGSGTDFTLTISSLEPEDFAVYYCQQRSNWPPTFGQGTKVEIK

Chain of human TGFßRII (antigen of the Octet experiments) (P37173 23-166): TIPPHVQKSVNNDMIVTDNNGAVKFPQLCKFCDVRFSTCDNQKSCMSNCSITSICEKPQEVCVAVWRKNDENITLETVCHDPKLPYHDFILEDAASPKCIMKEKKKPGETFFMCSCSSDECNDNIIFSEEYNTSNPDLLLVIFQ

The test has as its target human TGFßRII (antigen of the Octet experiments) (human, UniProt P37173 23-166).
Turning to B1, binding was characterised by a dissociation constant (Kd) of 4.34 nM. The molecule B2 gave a Kd of 4.38 nM.

B3 came in with a Kd of 6.44 nM. B4: the Kd turned out to be 2.43 nM. B5 registered a Kd of 6.15 nM. Take B6: the affinity, expressed as Kd, was 15.4 nM. In turn, B7 came in with a Kd of 9.08 nM. As for B8, the figure is 2.29 nM; as for B9, 4.26 nM. B10 displayed a Kd of 3.02 nM. B11 came in with a Kd of 3.69 nM. B12 registered a Kd of 8.43 nM.

Take B13: binding was put at a Kd of 7.4 nM.

As to B14, the Kd came to 6.99 nM.

As for B15, the Kd amounted to 7.15 nM. As for B16, the Kd stood at 9.77 nM. Molecule B17 yielded a dissociation constant Kd of 8.42 nM. Molecule B18 returned a Kd of 7.26 nM. As for B19, the figure is 9.24 nM.

Take B20: the equilibrium dissociation constant (Kd) came to 2.89 nM. The molecule B21 displayed a Kd of 4.19 nM.
